Experimental findings from patent CN116472284A are described below.

As a reminder, the EC50 is the midpoint of the concentration-response curve. High values mean weaker potency, low ones greater potency. By Kd is commonly meant the constant that tells how readily two partners part at equilibrium. The term koff denotes a measure of how fast the partners let go of each other. Lower therefore signals a long-lived complex.

Test [1] concerns the target SARS-CoV-2 spike ectodomain, prefusion-stabilised trimer (刺突 S2P) (SARS-CoV-2).
For test [2] the target is unchanged. In words: SPR, captured spike S2P. (In general: SPR reads the build-up and loss of mass on a sensor chip optically.)
Test [3] has the same target. In words: SPR, captured spike S2P, no measurable dissociation in ten minutes.
Test [4] shares this target. In words: SPR, captured spike S2P, biphasic dissociation, fast phase kd1.
Test [5] shares this target. In words: SPR, captured spike S2P, biphasic dissociation, slow phase kd2.
In test [6] the target is SARS-CoV-2 spike on live SARS-CoV-2 virus (isolate France/IDF0372/2020) (SARS-CoV-2) (UniProt P0DTC2). In words: cell-based or functional assay.

With “mNb6 (affinity-matured Nb6, I27Y and P105Y) (VHH)”, in test [1], the EC50 worked out at 0.056 nM.

Regarding “mNb6-tri (trivalent mNb6 with 20 amino acid linkers) (VHH)”, in test [2], the Kd is under 0.001 nM and the dissociation half-life t1/2 was > 8 天 (days). Also, in test [3], the koff is under 1e-06 s⁻¹.

Regarding “Nb6-tri (trivalent Nb6 with two 20 amino acid linkers) (VHH)”, the koff is 0.029 s⁻¹ in test [4] and under 1e-06 s⁻¹ in test [5]. The fold gain in KD against monovalent Nb6 in test [2] is over 200000 fold. The substance further displayed a mean IC50, plaque reduction neutralisation of live SARS-CoV-2 on VeroE6 cells in test [6] of 0.16 nM.
